Data: patent US20150355179A1 (CENTRE NATIONAL DE LA RECHERCHE SCIENTIFIQUE CNRS, published 2015)

Target: monomeric CDK2 (GST-CDK2/CIV in the absence of cyclin A) (UniProt P24941 1-298)
Test: real-time fluorescence assay with Cy3-labelled sensor
Experimental: Fluorescence emission of Cy3 was measured at 590 nm following excitation at 544 nm on Polarstar™ fluorimeter.
Fluorescence kinase assays were performed in 96-well plates in a thermostated chamber (Polarstar BMG) at 30° C. in 200 ul phosphate buffer saline, pH 7.2, 150 mM NaCl, in the presence of 5 mM MgCl2, 0.5 mM ATP, except when stated otherwise. […] Changes in Cy3 fluorescence emission were recorded at 590 nm following excitation at 544 nm. […] Data analysis and curve fitting were performed using the GraFit Software (Erathicus Ltd).

B1: GST-CDKACTH1 labelled with Cy3 (CDKACTH1-Cy3) (other)
chain: GEVVDSHLSDMLQQLHSVNASKPSERGLVRQEEAEDPASIPIFWVSKWVDYSDKYGLGYQLSDNSVGVLFNDSTRLILYNDGDSLQYIERDGTESYLTVSSHPNSLMKKITLLKYFRNYMSEHLLKAGANITPREGDELARLPYLRTWFRTRSAIILHLSNGSVQINFFQDHTKLILSPLMAAVTYIDEKRDFRTYRLSLLEEYGSSKELASRLRYARTMVDKLLSSRSASNRLKASPGAGGTGGLPGGGGCSTPKKAKKL
modifications: Cy3-maleimide coupled to the unique cysteine of the substrate sequence (position -2 of the TP phosphorylation site)
notes: The GST tag was not removed; also called CDKACT-Cy3; CDKACT-H1 biosensor; not shown: N-terminal GST tag from the pGex6P1 vector, kept on the biosensor
binding result: no binding
